What was measured:
[1] = substrate: COc1cc(C[C@@H](CO)[C@H](CO)Cc2ccc(O)c(OC)c2)ccc1O; assay: UPLC-MS glucosylation assay, SDG formation, Lineweaver-Burk; type: biochemical, Linum usitatissimum; details: SDG production (sequential glucosylation via SMG), 1.67 mM UDP-glucose fixed, pH 8.0, 30°C, 1 mM NaCl, 80 μg protein
[2] = substrate: O=c1ccn([C@@H]2O[C@H](CO[P@@](=O)(O)O[P@@](=O)(O)O[C@H]3O[C@H](CO)[C@@H](O)[C@H](O)[C@H]3O)[C@@H](O)[C@H]2O)c(=O)[nH]1; assay: as above; type: biochemical, Linum usitatissimum; details: SDG production, 280 μM SECO fixed, pH 8.0, 30°C, 1 mM NaCl, 80 μg protein

B1: UGT74S1 (Linum usitatissimum) (protein)
chain: MAGDEREKAHCLVVPAAAQGHFTPLLQFSKRLIPKRIRVTLALTRFIHSTMTVTAQSGIHIDTISDGFDHSGLILQDPEHYSQTFRRVGSETLTDLIRKQSESRHPVHCIIYDASMPWFLDVAKRFGIVGAAFLTQSCAVNAIYYHLREGTIKRPVVSDPAAGTLVIDGLPPLEVSDLPSFIWDDLHTEFLAAHLRQFSNDGADWVFCNTVYQLELEAVDWLTKQWLINFRTIGPTIPSFYLDKQIPDDKDYDISIFNPQNQTCMNWLQSKPDGSVVYVSFGSLARLSPQQTEELYFGLKNSNHYFLWVVRESEVAKLPKEEYLSGEKGLVVSWCSQLQVLASGKVGCFVTHCGWNSTLEALSLGVPMVAMPECGDQLTNAKFIKDVWKTGVRAEADDGKGIMWGMIKREVIERCIREVMEGEETRRNADKWGKIIKEAVVEGGSSDKNTEDFATSLINFAETFQFSC
Q: How did the Km [1] turn out when B1 was run?
A: 79 µM

Q: And the kcat [1]?
A: 0.89 s⁻¹

Q: And the Km [2]?
A: 1188 µM
